Assay results as given in publication PMC3756526 (2013).

What was measured:
[1] = target: ASB9–EloBC ternary complex (ankyrin-repeat and SOCS-box protein 9, Elongin B, Elongin C) (human) (UniProt Q96DX5); assay: native MS; nanoESI–MS of the reconstituted ASB9–EloBC–Cul5NTD sample at three concentrations; 500 mM ammonium acetate, pH 7.0
[2] = target: ASB9–EloBC ternary complex (ankyrin-repeat and SOCS-box protein 9, Elongin B, Elongin C) (human) (UniProt Q96DX5); assay: ITC; 288 K; Cul5NTD (450 μM) titrated into ASB9–EloBC (60 μM) in the cell; 50 mM HEPES, 100 mM NaCl, pH 7.5, 1 mM TCEP; one-set-of-sites model
[3] = target: ASB9–EloBC ternary complex (ankyrin-repeat and SOCS-box protein 9, Elongin B, Elongin C) (human) (UniProt Q96DX5); assay: ITC; 298 K; Cullin NTD (450 μM) titrated into ASB9–EloBC (60 μM) in the cell; 50 mM HEPES, 100 mM NaCl, pH 7.5, 1 mM TCEP; one-set-of-sites model
[4] = target: ASB9–EloBC ternary complex (ankyrin-repeat and SOCS-box protein 9, Elongin B, Elongin C) (human) (UniProt Q96DX5); assay: differential scanning fluorimetry; 2 μM ASB9–EloBC with Cul5NTD at 8, 4, 2, 1, 0.5 and 0.25 μM; Sypro Orange; 50 mM HEPES, 100 mM NaCl, pH 7.5, 1 mM TCEP; 37 to 95 °C at 1 °C/min
[5] = target: ASB9–EloBC ternary complex (ankyrin-repeat and SOCS-box protein 9, Elongin B, Elongin C) (human) (UniProt Q96DX5); assay: ITC; 303 K; Cul5NTD (450 μM) titrated into ASB9–EloBC (60 μM) in the cell; 50 mM HEPES, 100 mM NaCl, pH 7.5, 1 mM TCEP; one-set-of-sites model
[6] = target: T1, Cullin 5 N-terminal domain (residues 1–386, V341R, L345D) (human, UniProt Q93034 1-386, V341R | L345D); assay: ITC; 293 K
[7] = target: T1, Cullin 5 N-terminal domain (residues …); assay: ITC; 303 K
[8] = target: T1, Cullin 5 N-terminal domain (residues …); assay: ITC; 288 K

| Molecule | stoichiometry N [1] | dH [2] [kcal/mol] | Kd [3] [nM] | dH [3] [kcal/mol] | stoichiometry N [3] | ΔTm [4] [°C] | dH [5] [kcal/mol] | Kd [6] [nM] | Kd [7] [nM] | Kd [8] [nM] |
| --- | --- | --- | --- | --- | --- | --- | --- | --- | --- | --- |
| Cullin 5 N-terminal domain (residues 1–386, V341R, L345D) (from UniProt Q93034 1-386) (domain or fragment) | 1 | -3 | 220 | -6 | 1 | 4.6 | -8.3 | – | – | – |
| ASB9–EloBC ternary complex (ankyrin-repeat and SOCS-box protein 9, Elongin B, Elongin C) (complex) chain 1: SDWSPMHEAAIHGHQLSLRNLISQGWAVNIITADHVSPLHEACLGGHLSCVKILLKHGAQVNGVTADWHTPLFNACVSGSWDCVNLLLQHGASVQPESDLASPIHEAARRGHVECVNSLIAYGGNIDHKISHLGTPLYLACENQQRACVKKLLESGADVNQGKGQDSPLHAVARTASEELACLLMDFGADTQAKNAEGKRPVELVPPESPLAQLFLEREGPPSLMQLCRLRIRKCFGIQQHHKITKLVLPEDLKQFLLHL chain 2: MDVFLMIRRHKTTIFTDAKESSTVFELKRIVEGILKRPPDEQRLYKDDQLLDDGKTLGECGFTSQTARPQAPATVGLAFRADDTFEALCIEPFSSPPELPDVMKPQDSGSSANEQAVQ chain 3: MYVKLISSDGHEFIVKREHALTSGTIKAMLSGPGQFAENETNEVNFREIPSHVLSKVCMYFTYKVRYTNSSTEIPEFPIAPEIALELLMAANFLDC | – | – | – | – | – | – | – | 119 | 61 | 282 |
